This note sets out measurements from US20170355766A1 (Xencor, published 2017).

Assay in all cases: SPR (Biacore)
In general terms: In SPR one partner is held on a chip, and binding of the other changes the refractive index at the surface.

In experiment [1] the target is T1, human FcγRI receptor protein (R&D Systems) (human, UniProt P12314 16-288).
T1 construct: also called CD64

Experiment [2] addresses T2, human H131 FcγRIIa receptor protein (6xHis and GST tags) (human, UniProt P12318 34-217, limits assumed).
T2 construct: also called HIIa
T2 sequence (looked up): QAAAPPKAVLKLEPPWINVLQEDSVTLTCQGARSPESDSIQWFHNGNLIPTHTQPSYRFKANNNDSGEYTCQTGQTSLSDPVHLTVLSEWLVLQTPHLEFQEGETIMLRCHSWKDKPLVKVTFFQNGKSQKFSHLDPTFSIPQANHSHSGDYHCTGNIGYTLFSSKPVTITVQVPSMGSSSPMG

In experiment [3] the target is T3, human FcγRIIb receptor protein (R&D Systems) (human, UniProt P31994 46-217).
T3 construct: Analyte injected over antibodies captured on a protein A/G chip (Biacore); also called CD32b
T3 sequence (looked up): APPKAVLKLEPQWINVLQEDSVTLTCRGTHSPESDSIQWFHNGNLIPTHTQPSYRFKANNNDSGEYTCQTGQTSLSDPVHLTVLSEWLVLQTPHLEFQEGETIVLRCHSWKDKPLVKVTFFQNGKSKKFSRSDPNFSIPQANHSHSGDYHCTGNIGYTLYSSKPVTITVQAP

The target in a further experiment is T4, FcγRIIaR (human, UniProt P12318).
T4 construct: recombinant receptor protein with 6xHis and GST tags; also called R131 FcγRIIa
T4 sequence (receptor, looked up): T2 sequence (looked up) with H134R

The target of experiment [4] is T5, human V158 FcγRIIIa receptor protein (6xHis and GST tags) (human, UniProt P08637 17-208, limits assumed).
T5 construct: also called VIIIa

Changes are numbered by the printed parent chain. Numbers in names are those of the source.

T1 sequence (P12314 16-288 limits assumed): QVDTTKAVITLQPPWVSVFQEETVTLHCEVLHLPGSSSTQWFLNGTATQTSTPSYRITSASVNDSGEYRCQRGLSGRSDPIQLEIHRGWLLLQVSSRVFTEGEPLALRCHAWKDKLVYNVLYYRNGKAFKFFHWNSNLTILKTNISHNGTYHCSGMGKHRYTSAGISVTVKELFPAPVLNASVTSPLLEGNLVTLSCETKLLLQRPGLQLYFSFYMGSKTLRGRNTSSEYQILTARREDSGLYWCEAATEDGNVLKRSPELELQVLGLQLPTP

B1: A327D (antibody, human IgG1, kappa)
heavy: not shown
light: DIVMTQSPATLSLSPGERATLSCRSSKSLQNVNGNTYLYWFQQKPGQSPQLLIYRMSNLNSGVPDRFSGSGSGTEFTLTISSLEPEDFAVYYCMQHLEYPITFGAGTKLEIKRTVAAPSVFIFPPSDEQLKSGTASVVCLLNNFYPREAKVQWKVDNALQSGNSQESVTEQDSKDSTYSLSSTLTLSKADYEKHKVYACEVTHQGLSSPVTKSFNRGEC
notes: HuAM4G7 IgG1 Fc variant
Take B1: the “Fold FcγRI” value in experiment [1] came to 2.06 fold. Besides, the “Fold FcγRIIaH” value in experiment [2] is 0.733 fold. The “Fold FcγRIIb” value in experiment [3] was determined as 1.33 fold. Besides, the “Fold FcγRIIaR” value with FcγRIIaR was 1.6 fold. The “Fold FcγRIIIaV” value in experiment [4] was 0.398 fold.

B2: V266M (antibody, human IgG1, kappa)
heavy: not shown
light: B1 light
notes: HuAM4G7 IgG1 Fc variant
As for B2, in experiment [1], the “Fold FcγRI” value turned out to be 1.25 fold. Moreover, in experiment [3], the “Fold FcγRIIb” value turned out to be 1.91 fold. In addition, in the experiment with FcγRIIaR, the “Fold FcγRIIaR” value was 3.13 fold. For the same molecule, the “Fold FcγRIIIaV” value in experiment [4] amounted to 0.547 fold.

B3: S267D (antibody, human IgG1, kappa)
heavy: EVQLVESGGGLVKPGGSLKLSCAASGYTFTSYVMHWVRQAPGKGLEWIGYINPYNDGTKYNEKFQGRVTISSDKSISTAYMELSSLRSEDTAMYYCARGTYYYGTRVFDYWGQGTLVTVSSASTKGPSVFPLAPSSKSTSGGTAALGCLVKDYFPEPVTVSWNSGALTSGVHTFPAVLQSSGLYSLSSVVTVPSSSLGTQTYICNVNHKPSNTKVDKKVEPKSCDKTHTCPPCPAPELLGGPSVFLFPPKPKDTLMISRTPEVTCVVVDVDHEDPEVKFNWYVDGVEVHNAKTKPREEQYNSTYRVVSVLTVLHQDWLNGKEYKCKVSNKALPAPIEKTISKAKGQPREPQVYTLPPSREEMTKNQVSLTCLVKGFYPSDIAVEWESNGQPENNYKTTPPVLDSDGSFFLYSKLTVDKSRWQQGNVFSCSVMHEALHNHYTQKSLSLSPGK
light: B1 light
notes: HuAM4G7 IgG1 Fc variant
Turning to B3, in experiment [1], the “Fold FcγRI” value was 2.11 fold. For the same molecule, the “Fold FcγRIIb” value in experiment [3] stood at 4.45 fold. Also, the “Fold FcγRIIaR” value in the experiment with FcγRIIaR was 8.99 fold. In addition, the “Fold FcγRIIIaV” value in experiment [4] came to 1.51 fold.

B4: G236N/S267E (antibody, human IgG1, kappa)
heavy: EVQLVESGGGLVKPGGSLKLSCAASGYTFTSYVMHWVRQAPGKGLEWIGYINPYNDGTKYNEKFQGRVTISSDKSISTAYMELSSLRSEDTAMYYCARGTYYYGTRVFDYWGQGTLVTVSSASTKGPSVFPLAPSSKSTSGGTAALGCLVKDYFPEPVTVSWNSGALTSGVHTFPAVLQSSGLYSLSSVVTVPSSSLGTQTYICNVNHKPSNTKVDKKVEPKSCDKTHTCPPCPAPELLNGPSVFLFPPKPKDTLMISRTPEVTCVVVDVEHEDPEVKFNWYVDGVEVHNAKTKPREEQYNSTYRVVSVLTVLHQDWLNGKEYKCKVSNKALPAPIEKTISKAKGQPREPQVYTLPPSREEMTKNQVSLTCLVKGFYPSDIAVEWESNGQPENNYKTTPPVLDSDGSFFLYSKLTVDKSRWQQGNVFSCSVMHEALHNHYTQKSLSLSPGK
light: B1 light
notes: HuAM4G7 IgG1 Fc variant
B4: the “Fold FcγRI” value in experiment [1] turned out to be 0.0355 fold. Besides, the binding result in experiment [2] and in experiment [4] was “no binding” throughout. Also, the “Fold FcγRIIb” value in experiment [3] was determined as 19.8 fold. In the experiment with FcγRIIaR, the “Fold FcγRIIaR” value is 3.27 fold.

B5: G237N/S267E (antibody, human IgG1, kappa)
heavy: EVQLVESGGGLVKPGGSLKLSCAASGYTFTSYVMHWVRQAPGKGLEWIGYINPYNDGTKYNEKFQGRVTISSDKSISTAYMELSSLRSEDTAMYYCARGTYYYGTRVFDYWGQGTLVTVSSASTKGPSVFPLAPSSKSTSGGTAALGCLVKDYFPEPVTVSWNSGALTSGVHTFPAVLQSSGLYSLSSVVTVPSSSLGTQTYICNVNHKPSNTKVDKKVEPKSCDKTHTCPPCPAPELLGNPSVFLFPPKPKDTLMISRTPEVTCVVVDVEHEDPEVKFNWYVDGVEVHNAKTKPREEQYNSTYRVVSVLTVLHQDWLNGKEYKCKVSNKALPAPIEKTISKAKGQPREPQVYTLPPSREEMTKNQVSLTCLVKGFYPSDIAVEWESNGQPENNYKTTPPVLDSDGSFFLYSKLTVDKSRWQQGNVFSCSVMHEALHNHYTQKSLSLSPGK
light: B1 light
notes: HuAM4G7 IgG1 Fc variant
Take B5: in experiment [1], the “Fold FcγRI” value came to 0.101 fold. For the same molecule, the “Fold FcγRIIb” value in experiment [3] turned out to be 40.5 fold. Also, the “Fold FcγRIIaR” value in the experiment with FcγRIIaR came out at 61.5 fold. In addition, the binding result in experiment [4] is “no binding”.

B6: G236T (antibody, human IgG1, kappa)
heavy: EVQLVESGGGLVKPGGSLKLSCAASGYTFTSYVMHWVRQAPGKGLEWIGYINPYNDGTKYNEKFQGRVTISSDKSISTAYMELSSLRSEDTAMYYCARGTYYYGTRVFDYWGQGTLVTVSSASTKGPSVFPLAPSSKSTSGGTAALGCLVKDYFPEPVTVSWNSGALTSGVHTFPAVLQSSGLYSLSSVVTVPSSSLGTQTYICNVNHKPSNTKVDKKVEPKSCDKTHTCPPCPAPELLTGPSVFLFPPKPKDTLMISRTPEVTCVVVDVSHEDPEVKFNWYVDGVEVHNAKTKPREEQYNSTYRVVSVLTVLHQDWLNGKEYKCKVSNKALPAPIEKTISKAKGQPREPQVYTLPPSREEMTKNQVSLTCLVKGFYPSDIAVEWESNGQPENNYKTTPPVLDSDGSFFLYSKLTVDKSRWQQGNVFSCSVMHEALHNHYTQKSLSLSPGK
light: B1 light
notes: HuAM4G7 IgG1 Fc variant
Regarding B6, in experiment [1], the “Fold FcγRI” value was determined as 0.0157 fold. For the same molecule, in experiment [2], the “Fold FcγRIIaH” value was 0.486 fold. For the same molecule, in the experiment with FcγRIIaR, the “Fold FcγRIIaR” value was determined as 0.35 fold. The binding result in experiment [4] is given as “no binding”.

B7: G237A (antibody, human IgG1, kappa)
heavy: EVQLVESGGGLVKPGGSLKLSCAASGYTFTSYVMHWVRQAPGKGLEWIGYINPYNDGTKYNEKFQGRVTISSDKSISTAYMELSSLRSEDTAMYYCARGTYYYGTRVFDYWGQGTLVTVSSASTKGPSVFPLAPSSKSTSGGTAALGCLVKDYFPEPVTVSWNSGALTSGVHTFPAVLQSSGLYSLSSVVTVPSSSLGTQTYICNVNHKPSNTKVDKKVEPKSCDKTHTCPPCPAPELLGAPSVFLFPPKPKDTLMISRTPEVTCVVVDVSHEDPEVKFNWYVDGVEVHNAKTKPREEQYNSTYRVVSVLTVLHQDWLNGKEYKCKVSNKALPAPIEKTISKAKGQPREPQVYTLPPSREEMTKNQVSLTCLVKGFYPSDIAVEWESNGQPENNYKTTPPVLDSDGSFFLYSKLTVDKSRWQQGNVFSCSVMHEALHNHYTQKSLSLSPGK
light: B1 light
notes: HuAM4G7 IgG1 Fc variant
In the case of B7, the “Fold FcγRI” value in experiment [1] amounted to 0.0108 fold. Besides, the binding result in experiment [2] and in experiment [4] was “no binding” in each case. The “Fold FcγRIIb” value in experiment [3] worked out at 0.191 fold. The “Fold FcγRIIaR” value with FcγRIIaR is 0.704 fold.

B8: S239E (antibody, human IgG1, kappa)
heavy: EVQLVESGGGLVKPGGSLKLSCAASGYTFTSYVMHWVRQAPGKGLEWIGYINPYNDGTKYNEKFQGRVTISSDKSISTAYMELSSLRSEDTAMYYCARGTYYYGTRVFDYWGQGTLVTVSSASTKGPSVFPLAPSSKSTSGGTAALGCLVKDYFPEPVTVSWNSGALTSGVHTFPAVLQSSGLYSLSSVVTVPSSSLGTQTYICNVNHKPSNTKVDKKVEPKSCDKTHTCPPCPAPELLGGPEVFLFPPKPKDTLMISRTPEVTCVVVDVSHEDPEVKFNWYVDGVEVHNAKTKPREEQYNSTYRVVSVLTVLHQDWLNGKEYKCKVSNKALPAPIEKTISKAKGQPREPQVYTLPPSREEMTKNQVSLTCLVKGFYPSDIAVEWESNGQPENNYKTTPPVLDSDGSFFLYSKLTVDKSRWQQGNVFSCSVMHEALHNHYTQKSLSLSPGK
light: B1 light
notes: HuAM4G7 IgG1 Fc variant
Consider B8, for which the “Fold FcγRI” value in experiment [1] was 1.65 fold. Moreover, the “Fold FcγRIIb” value in experiment [3] was 0.803 fold. Moreover, the “Fold FcγRIIaR” value with FcγRIIaR came to 0.688 fold. The “Fold FcγRIIIaV” value in experiment [4] turned out to be 3.49 fold.

B9: L234D/S267E (antibody, human IgG1, kappa)
heavy: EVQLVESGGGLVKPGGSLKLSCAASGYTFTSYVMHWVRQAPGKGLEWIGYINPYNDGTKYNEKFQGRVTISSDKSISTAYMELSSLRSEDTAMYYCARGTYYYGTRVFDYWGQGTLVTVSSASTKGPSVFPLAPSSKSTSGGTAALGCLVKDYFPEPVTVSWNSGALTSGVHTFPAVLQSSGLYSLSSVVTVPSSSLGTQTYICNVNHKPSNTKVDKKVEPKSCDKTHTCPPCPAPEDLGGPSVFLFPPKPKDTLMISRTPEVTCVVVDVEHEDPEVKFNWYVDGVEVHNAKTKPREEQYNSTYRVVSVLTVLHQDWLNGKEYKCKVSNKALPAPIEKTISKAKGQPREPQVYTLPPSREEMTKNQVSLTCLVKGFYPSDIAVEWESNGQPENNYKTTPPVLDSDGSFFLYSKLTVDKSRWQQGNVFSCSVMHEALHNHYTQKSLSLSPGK
light: B1 light
notes: HuAM4G7 IgG1 Fc variant
For B9, the “Fold FcγRI” value in experiment [1] came out at 0.0286 fold. Also, in experiment [3], the “Fold FcγRIIb” value came to 21.7 fold. In addition, the “Fold FcγRIIaR” value with FcγRIIaR was found to be 12.7 fold. Further, the “Fold FcγRIIIaV” value in experiment [4] was found to be 0.14 fold.

B10: G236S (antibody, human IgG1, kappa)
heavy: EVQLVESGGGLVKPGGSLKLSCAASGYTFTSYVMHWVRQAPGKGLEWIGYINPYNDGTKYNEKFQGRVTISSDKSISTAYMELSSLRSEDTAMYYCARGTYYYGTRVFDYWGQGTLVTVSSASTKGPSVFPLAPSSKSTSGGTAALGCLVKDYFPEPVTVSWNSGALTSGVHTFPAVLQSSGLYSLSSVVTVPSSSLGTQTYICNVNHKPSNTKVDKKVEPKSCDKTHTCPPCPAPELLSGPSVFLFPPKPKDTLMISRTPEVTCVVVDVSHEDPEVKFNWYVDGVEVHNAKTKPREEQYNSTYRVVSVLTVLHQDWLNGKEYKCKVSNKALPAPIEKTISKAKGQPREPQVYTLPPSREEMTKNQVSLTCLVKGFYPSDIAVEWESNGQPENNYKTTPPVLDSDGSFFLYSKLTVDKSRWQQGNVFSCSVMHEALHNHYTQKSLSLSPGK
light: B1 light
notes: HuAM4G7 IgG1 Fc variant
B10: in experiment [1], the “Fold FcγRI” value was 0.0268 fold. Also, in experiment [2], the “Fold FcγRIIaH” value is 3.76 fold. Further, the “Fold FcγRIIb” value in experiment [3] was 1.02 fold. In the experiment with FcγRIIaR, the “Fold FcγRIIaR” value came out at 2.33 fold.

B11: A327N (antibody, human IgG1, kappa)
heavy: not shown
light: B1 light
notes: HuAM4G7 IgG1 Fc variant
As for B11, the “Fold FcγRI” value in experiment [1] was 0.0279 fold. Moreover, the binding result in experiment [2] and in experiment [4] was “no binding” in each case. Besides, the “Fold FcγRIIb” value in experiment [3] is 0.843 fold. The “Fold FcγRIIaR” value with FcγRIIaR amounted to 0.609 fold.

B12: S267E/H268E/L328F (antibody, human IgG1, kappa)
heavy: EVQLVESGGGLVKPGGSLKLSCAASGYTFTSYVMHWVRQAPGKGLEWIGYINPYNDGTKYNEKFQGRVTISSDKSISTAYMELSSLRSEDTAMYYCARGTYYYGTRVFDYWGQGTLVTVSSASTKGPSVFPLAPSSKSTSGGTAALGCLVKDYFPEPVTVSWNSGALTSGVHTFPAVLQSSGLYSLSSVVTVPSSSLGTQTYICNVNHKPSNTKVDKKVEPKSCDKTHTCPPCPAPELLGGPSVFLFPPKPKDTLMISRTPEVTCVVVDVEEEDPEVKFNWYVDGVEVHNAKTKPREEQYNSTYRVVSVLTVLHQDWLNGKEYKCKVSNKAFPAPIEKTISKAKGQPREPQVYTLPPSREEMTKNQVSLTCLVKGFYPSDIAVEWESNGQPENNYKTTPPVLDSDGSFFLYSKLTVDKSRWQQGNVFSCSVMHEALHNHYTQKSLSLSPGK
light: B1 light
notes: HuAM4G7 IgG1 Fc variant
Regarding B12, in experiment [1], the “Fold FcγRI” value is 0.991 fold. Also, in experiment [3], the “Fold FcγRIIb” value was found to be 344 fold. For the same molecule, in the experiment with FcγRIIaR, the “Fold FcγRIIaR” value was determined as 253 fold.

B13: S267E/L328Y (antibody, human IgG1, kappa)
heavy: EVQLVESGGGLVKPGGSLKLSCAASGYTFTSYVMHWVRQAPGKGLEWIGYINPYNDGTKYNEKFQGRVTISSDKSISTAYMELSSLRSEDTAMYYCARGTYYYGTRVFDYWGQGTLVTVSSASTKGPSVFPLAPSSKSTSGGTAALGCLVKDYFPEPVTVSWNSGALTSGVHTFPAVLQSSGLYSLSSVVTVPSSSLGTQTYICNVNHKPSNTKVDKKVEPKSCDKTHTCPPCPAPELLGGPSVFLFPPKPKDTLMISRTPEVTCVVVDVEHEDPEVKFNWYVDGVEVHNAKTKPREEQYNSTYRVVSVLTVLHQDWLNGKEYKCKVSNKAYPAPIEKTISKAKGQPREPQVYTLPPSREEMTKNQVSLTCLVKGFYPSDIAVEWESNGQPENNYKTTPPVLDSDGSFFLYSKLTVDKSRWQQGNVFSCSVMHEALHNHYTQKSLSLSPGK
light: B1 light
notes: HuAM4G7 IgG1 Fc variant
Turning to B13, in experiment [1], the “Fold FcγRI” value was found to be 0.224 fold. The “Fold FcγRIIb” value in experiment [3] stood at 43.1 fold. Besides, the “Fold FcγRIIaR” value with FcγRIIaR was 122 fold. The binding result in experiment [4] was “no binding”.

B14: G236D/S267E/L328F (antibody, human IgG1, kappa)
heavy: B12 heavy with G240D, E272H
light: B1 light
notes: HuAM4G7 IgG1 Fc variant
For B14, the “Fold FcγRI” value in experiment [1] is 0.0736 fold. The “Fold FcγRIIaH” value in experiment [2] came out at 0.0301 fold. The “Fold FcγRIIb” value in experiment [3] came out at 149 fold. Besides, the “Fold FcγRIIaR” value with FcγRIIaR stood at 59.9 fold. Also, in experiment [4], the binding result is given as “no binding”.

B15: S267A (antibody, human IgG1, kappa)
heavy: not shown
light: B1 light
notes: HuAM4G7 IgG1 Fc variant
Take B15: the “Fold FcγRI” value in experiment [1] turned out to be 1.15 fold. Moreover, the “Fold FcγRIIb” value in experiment [3] is 3.6 fold. In addition, the “Fold FcγRIIaR” value in the experiment with FcγRIIaR worked out at 4.29 fold. Also, in experiment [4], the “Fold FcγRIIIaV” value stood at 0.952 fold.

B16: anti-CD19 antibody HuAM4G7 IgG1 Fc variant S239D/S267E (antibody)
heavy: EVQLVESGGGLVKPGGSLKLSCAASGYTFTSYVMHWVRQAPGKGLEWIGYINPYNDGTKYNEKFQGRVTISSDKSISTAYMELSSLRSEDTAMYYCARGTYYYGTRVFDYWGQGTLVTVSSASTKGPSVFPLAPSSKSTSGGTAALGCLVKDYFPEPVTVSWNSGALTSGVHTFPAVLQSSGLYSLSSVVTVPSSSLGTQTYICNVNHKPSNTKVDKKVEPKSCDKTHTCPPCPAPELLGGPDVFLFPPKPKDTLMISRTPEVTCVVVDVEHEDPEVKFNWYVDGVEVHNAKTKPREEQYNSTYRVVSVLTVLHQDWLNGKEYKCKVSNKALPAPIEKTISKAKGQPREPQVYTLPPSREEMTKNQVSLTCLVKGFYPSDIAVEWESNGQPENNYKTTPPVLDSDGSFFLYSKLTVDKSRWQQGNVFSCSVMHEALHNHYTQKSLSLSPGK
light: B1 light
notes: Positions are EU numbers, not positions on the UniProt entry; copies: 2 + 2
Regarding B16, in experiment [1], the “Fold FcγRI” value came to 23.2 fold. The “Fold FcγRIIb” value in experiment [3] was 111 fold. Moreover, the “Fold FcγRIIaR” value in the experiment with FcγRIIaR worked out at 120 fold. In addition, in experiment [4], the “Fold FcγRIIIaV” value is 3.74 fold.

B17: S267E/A327D (antibody, human IgG1, kappa)
heavy: not shown
light: B1 light
notes: HuAM4G7 IgG1 Fc variant
In the case of B17, the “Fold FcγRI” value in experiment [1] was 1.66 fold. In addition, the “Fold FcγRIIb” value in experiment [3] is 21.2 fold. The “Fold FcγRIIaR” value with FcγRIIaR came to 16.7 fold.

B18: G236D/S239D/S267E (antibody, human IgG1, kappa)
heavy: B12 heavy with G240D, S243D, E272H, F332L
light: B1 light
notes: HuAM4G7 IgG1 Fc variant
Turning to B18, the “Fold FcγRI” value in experiment [1] turned out to be 0.0685 fold. Moreover, the “Fold FcγRIIaH” value in experiment [2] stood at 0.217 fold. Further, the “Fold FcγRIIb” value in experiment [3] turned out to be 84.8 fold. Further, in the experiment with FcγRIIaR, the “Fold FcγRIIaR” value was 26.7 fold. In experiment [4], the binding result is “no binding”.

B19: G236D/S267E/H268E (antibody, human IgG1, kappa)
heavy: B12 heavy with G240D, F332L
light: B1 light
notes: HuAM4G7 IgG1 Fc variant
Take B19: the “Fold FcγRI” value in experiment [1] came to 0.0902 fold. Besides, the “Fold FcγRIIaH” value in experiment [2] came out at 0.103 fold. Also, in experiment [3], the “Fold FcγRIIb” value was determined as 110 fold. For the same molecule, the “Fold FcγRIIaR” value with FcγRIIaR is 29.9 fold. The binding result in experiment [4] is recorded as “no binding”.

B20: S239D/S267E/L328F (antibody, human IgG1, kappa)
heavy: B12 heavy with S243D, E272H
light: B1 light
notes: HuAM4G7 IgG1 Fc variant
With B20, in experiment [1], the “Fold FcγRI” value is 1.45 fold. The “Fold FcγRIIb” value in experiment [3] came to 428 fold. Further, in the experiment with FcγRIIaR, the “Fold FcγRIIaR” value is 416 fold. In experiment [4], the “Fold FcγRIIIaV” value is 0.216 fold.
